From publication PMC2832797 (Biochemistry, 2010)

Target: N-terminal His-tagged ubiquitin (15N-labelled) (UniProt P0CG48 1-76, 15N-labelled)
Assay: NMR titration

Kd: > 100 µM
B1: N-terminal His-tagged human alpha4 (amino acid residues 1-222) (domain or fragment, UniProt P78318 1-222, looked up)
chain: MAAEDELQLPRLPELFETGRQLLDEVEVATEPAGSRIVQEKVFKGLDLLEKAAEMLSQLDLFSRNEDLEEIASTDLKYLLVPAFQGALTMKQVNPSKRLDHLQRAREHFINYLTQCHCYHVAEFELPKTMNNSAENHTANSSMAYPSLVAMASQRQAKIQRYKQKKELEHRLSAMKSAVESGQADDERVREYYLLHLQRWIDISLEEIESIDQEIKILRERD
